± gives the uncertainty stated by the source.
Assay: self-splicing fitness, log relative to wild type (ln ratio); higher = more splicing; Tetrahymena group I intron in knt gene, E. coli kanamycin selection, DiMSum; sequences stand for … in CUCUCU…GGAGGGAAAAGUUAUCAGGCAUGCACCUGGUAGCUAGUCUUUAAACCAAUAGAUUGCAUCGGUUUAAAAGGCAAGACCGUCAAAUUGCGGGAAAGGGGUCAACAGCCGUUCAGUACCAAGUCUCAGGGGAAACUUUGAGAUGGCCUUGCAAAGGGUAUGGUAAUAAGCUGACGGACAUGGUCCUAACCACGCAGCCAAGUCCUAAGUCAACAGAUCUUCUGUUGAUAUGGAUGCAGUUCACAGACUAAAUGUCGGUCGGGGAAGAUGUAUUCUUCUCAUAAGAUAUAGUCGGACCUCUCCUUAAUGGGAGCUAGCGGAUGAAGUGAUGCAACACUGGAGCCGCUGGGAACUAAUUUGUAUGCGAAAGUAUAUUGAUUAGUUUUGGAGUACUCGUGGUCG
How it was run: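 DiMSum derived fitness as the error-weighted combination of fold changes across replicates, kanamycin versus no kanamycin, normalised to wild type. E. coli BL21(DE3) held the library, which randomised all eight P1ex-region intron nucleotides within the knt kanamycin-resistance gene on pET-22b(+). Six replicate transformations grew overnight at 37°C or 30°C on LB agar with or without 25 μg/mL kanamycin, also containing 100 μg/mL carbenicillin, 50 μM IPTG and 0.2% rhamnose, and pooled colonies were amplicon-sequenced on an Illumina HiSeq 2500.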

Sequence	self-splicing fitness (ln) (30 °C)	self-splicing fitness (ln) (37 °C)
UCAGAGCAAUAUUACGAGUA	-3.89 ± 0.46	-1.01 ± 0.14
UCAGAGCAAUAUUACGAGUC	-3.39 ± 0.35	-3.09 ± 0.21
UCAGAGCAAUAUUACGAUGC	-3.8 ± 0.32	-1.68 ± 0.24
UCAGAGCAAUAUUACGCAUA	-3.19 ± 0.42	–
UCAGAGCAAUAUUACGCAUG	-3.13 ± 0.3	-2.02 ± 0.21
UCAGAGCAAUAUUACGCCAG	-2.62 ± 0.3	-0.0811 ± 0.28
UCAGAGCAAUAUUACGCCGA	-3.18 ± 0.33	-1.63 ± 0.23
UCAGAGCAAUAUUACGCCGU	–	-3.02 ± 0.43
UCAGAGCAAUAUUACGCGGA	-2.96 ± 0.33	-1.64 ± 0.17
UCAGAGCAAUAUUACGCUAG	-2.4 ± 0.12	-2.95 ± 0.28
UCAGAGCAAUAUUACGGAUA	-2.81 ± 0.3	–
UCAGAGCAAUAUUACGGCCA	-2.1 ± 0.27	-2.17 ± 0.32
UCAGAGCAAUAUUACGGGUU	-3.76 ± 0.46	-1.58 ± 0.26
UCAGAGCAAUAUUACGUAGG	-0.836 ± 0.12	-0.744 ± 0.17
UCAGAGCAAUAUUACGUAUG	-2.12 ± 0.23	-2.37 ± 0.31
UCAGAGCAAUAUUACGUGCC	-2.62 ± 0.41	–
UCAGAGCAAUAUUACGUGCG	-2.9 ± 0.23	-0.826 ± 0.16
UCAGAGCAAUAUUACGUGUG	-2.67 ± 0.13	-2.53 ± 0.13
UCAUAGCAAUAUUACGAACA	-1.78 ± 0.17	-0.838 ± 0.16
UCAUAGCAAUAUUACGACAU	-4.005 ± 0.032	-2.92 ± 0.042
UCAUAGCAAUAUUACGACGC	-1.6 ± 0.19	-0.696 ± 0.21
UCAUAGCAAUAUUACGACGG	-0.375 ± 0.11	-0.184 ± 0.13
UCAUAGCAAUAUUACGACUG	-1.04 ± 0.1	-0.379 ± 0.14
UCAUAGCAAUAUUACGAUAC	-3.23 ± 0.38	–
UCAUAGCAAUAUUACGAUAU	-3.76 ± 0.32	-2.4 ± 0.29

Sequence	self-splicing fitness (ln) (30 °C)	self-splicing fitness (ln) (37 °C)
UCAUAGCAAUAUUACGAUCG	-0.885 ± 0.09	-0.426 ± 0.12
UCAUAGCAAUAUUACGAUGC	-1.49 ± 0.14	-1.43 ± 0.14
UCAUAGCAAUAUUACGAUUU	-3.45 ± 0.22	-2.24 ± 0.22
UCAUAGCAAUAUUACGCAAU	-3.1 ± 0.19	-2.84 ± 0.28
UCAUAGCAAUAUUACGCAGA	-2.93 ± 0.34	-2.7 ± 0.24
UCAUAGCAAUAUUACGCCAG	-1.74 ± 0.17	-2.4 ± 0.19
UCAUAGCAAUAUUACGCCGC	-3.77 ± 0.33	-1.61 ± 0.41
UCAUAGCAAUAUUACGCUAA	-3.23 ± 0.37	-2.07 ± 0.29
UCAUAGCAAUAUUACGGAAG	–	-2.19 ± 0.33
UCAUAGCAAUAUUACGGCAG	-1.31 ± 0.15	-1.07 ± 0.15
UCAUAGCAAUAUUACGGGUA	-1.8 ± 0.094	-1.53 ± 0.079
UCAUAGCAAUAUUACGGUAA	-2.44 ± 0.27	-0.618 ± 0.15
UCAUAGCAAUAUUACGGUAG	-3.28 ± 0.23	-1.77 ± 0.17
UCAUAGCAAUAUUACGGUCA	-1.1 ± 0.16	-0.484 ± 0.16
UCAUAGCAAUAUUACGUCGG	-1.34 ± 0.12	-0.0833 ± 0.11
UCAUAGCAAUAUUACGUCGU	-3.88 ± 0.39	-1.79 ± 0.38
UCAUAGCAAUAUUACGUCUA	-2.05 ± 0.19	-0.601 ± 0.14
UCAUAGCAAUAUUACGUGAA	-2.56 ± 0.091	-1.61 ± 0.1
UCAUAGCAAUAUUACGUUGU	-4.35 ± 0.23	-2.77 ± 0.21
UCCAAGCAAUAUUACGAAAU	-2.02 ± 0.2	-1.98 ± 0.21
UCCAAGCAAUAUUACGAAUA	-2.4 ± 0.16	-1.13 ± 0.097
UCCAAGCAAUAUUACGAAUC	–	-1.28 ± 0.19
UCCAAGCAAUAUUACGAAUU	-3.42 ± 0.14	-2.5 ± 0.16
UCCAAGCAAUAUUACGACCG	–	-1.38 ± 0.41
UCCAAGCAAUAUUACGAGCU	-3.58 ± 0.16	-3 ± 0.25

Sequence	self-splicing fitness (ln) (30 °C)	self-splicing fitness (ln) (37 °C)
UCCAAGCAAUAUUACGAGGU	-3.4 ± 0.14	-1.8 ± 0.11
UCCAAGCAAUAUUACGAUAU	-3.24 ± 0.19	-2.57 ± 0.16
UCCAAGCAAUAUUACGAUGG	-1.01 ± 0.059	0.16 ± 0.083
UCCAAGCAAUAUUACGCCAU	-4.34 ± 0.28	-3.21 ± 0.27
UCCAAGCAAUAUUACGCCCU	-2.49 ± 0.24	-1.32 ± 0.26
UCCAAGCAAUAUUACGCCGC	-2.64 ± 0.32	–
UCCAAGCAAUAUUACGCUAC	-3.8 ± 0.27	-2.48 ± 0.24
UCCAAGCAAUAUUACGGACC	-2.63 ± 0.36	-0.119 ± 0.18
UCCAAGCAAUAUUACGGAGC	-3.35 ± 0.37	-2.44 ± 0.26
UCCAAGCAAUAUUACGGAGU	-2.17 ± 0.12	-1.44 ± 0.13
UCCAAGCAAUAUUACGGAUG	-3.77 ± 0.13	-3.2 ± 0.25
UCCAAGCAAUAUUACGGGCG	-1.05 ± 0.073	-0.839 ± 0.085
UCCAAGCAAUAUUACGGGGG	-3.91 ± 0.2	-3.41 ± 0.24
UCCAAGCAAUAUUACGGGUU	-3.89 ± 0.14	-1.75 ± 0.097
UCCAAGCAAUAUUACGUCAG	-3.02 ± 0.15	-1.69 ± 0.13
UCCAAGCAAUAUUACGUCCU	-4.09 ± 0.31	-2.95 ± 0.43
UCCAAGCAAUAUUACGUCGC	-3.47 ± 0.21	-3.12 ± 0.28
UCCCAGCAAUAUUACGAAUU	-3.04 ± 0.19	-2.27 ± 0.17
UCCCAGCAAUAUUACGACAA	-2.16 ± 0.15	-1.37 ± 0.14
UCCCAGCAAUAUUACGAGCA	-0.711 ± 0.1	0.0665 ± 0.13
UCCCAGCAAUAUUACGAGGA	-2.18 ± 0.11	-1.36 ± 0.12
UCCCAGCAAUAUUACGAUCU	-3.77 ± 0.23	-1.95 ± 0.24
UCCCAGCAAUAUUACGCACG	-3.4 ± 0.17	-2.6 ± 0.23
UCCCAGCAAUAUUACGCGUA	-0.178 ± 0.066	0.0254 ± 0.079
UCCCAGCAAUAUUACGGACA	-1.63 ± 0.092	-0.126 ± 0.081

Sequence	self-splicing fitness (ln) (30 °C)	self-splicing fitness (ln) (37 °C)
UCCCAGCAAUAUUACGGGAU	-3.59 ± 0.14	-3.46 ± 0.21
UCCCAGCAAUAUUACGGGUA	-0.837 ± 0.065	-0.432 ± 0.071
UCCCAGCAAUAUUACGGGUC	-3.67 ± 0.16	-3.35 ± 0.22
UCCCAGCAAUAUUACGGUCG	-1.76 ± 0.071	-0.748 ± 0.078
UCCCAGCAAUAUUACGGUGC	-2.41 ± 0.13	-1.51 ± 0.13
UCCCAGCAAUAUUACGUAGG	-4.06 ± 0.17	-1.08 ± 0.11
UCCCAGCAAUAUUACGUCAC	-4.1 ± 0.33	-3.23 ± 0.33
UCCCAGCAAUAUUACGUCCU	-3.36 ± 0.18	-1.48 ± 0.15
UCCCAGCAAUAUUACGUCGA	-0.251 ± 0.071	0.317 ± 0.099
UCCCAGCAAUAUUACGUCGC	-3.47 ± 0.27	-2.4 ± 0.22
UCCCAGCAAUAUUACGUUUU	-3.06 ± 0.11	-1.81 ± 0.15
UCCGAGCAAUAUUACGAACG	-1.82 ± 0.37	-1.06 ± 0.22
UCCGAGCAAUAUUACGAAGC	–	-1.15 ± 0.36
UCCGAGCAAUAUUACGAAGU	–	-1.4 ± 0.29
UCCGAGCAAUAUUACGACGA	-0.666 ± 0.086	0.401 ± 0.11
UCCGAGCAAUAUUACGAGCA	-1.02 ± 0.1	-0.767 ± 0.097
UCCGAGCAAUAUUACGAGCG	-3.16 ± 0.18	-2.47 ± 0.24
UCCGAGCAAUAUUACGAUCU	-3.46 ± 0.35	-2.61 ± 0.39
UCCGAGCAAUAUUACGCGAA	-2.94 ± 0.4	-1.84 ± 0.4
UCCGAGCAAUAUUACGCGCG	-2.28 ± 0.15	-3.28 ± 0.43
UCCGAGCAAUAUUACGCUUA	-2.39 ± 0.41	-2.47 ± 0.39
UCCGAGCAAUAUUACGGAUU	-3.52 ± 0.29	-2.45 ± 0.26
UCCGAGCAAUAUUACGGUCA	-0.946 ± 0.067	-0.671 ± 0.057

Reference: the supplement of paper PMC7877785
